Where two headings read alike, the source gives them in different places. Where no end group is shown, it is not given here.
Assays:
[1] = system: anti-SA-LeX monoclonal antibody FH-6; assay: ELISA reactivity of peptides with antibody FH-6; assay type: binding
Source text: FIG. 3 depicts the reactivity of the anti-sLex antibody FH-6 with MAP peptides.
(§1) BR55-2 and 15.6A show distinct binding properties for LeY expressing tumor cells. […] The general mimicry of the K1106, K1105 and K1107 peptides for Le antigens is further assessed by ELISA reactivity with the anti-SA-LeX monoclonal antibody FH-6 (FIG. 3). These peptides are also reactive with this antibody. The significance of this reactivity is that previous reports indicate that peptides might only be reactive with antibodies that isolate them and in fact it is expected that peptide mimotopes might be not true mimics of carbohydrates.

[2] = system: anti-LeY monoclonal antibody BR55-2; assay: ELISA reaction of MAb BR55-2 with peptides (MAP forms); assay type: binding; conditions: MAP peptide forms
Protocol: (§2) FIGS. 2A and 2B depict the reactivity of putative motifs by ELISA. […] Constant amounts of BR55-2 were incubates with increasing amounts of MAP peptides, and then reaction of free mAb with LeY was measured by ELISA. Data points reflect 50% inhibition at 2 μg/ml of peptide inhibitor as measured by reduction of O.D. values in ELISA.
For example, polyclonal antibodies raised against the motif YYRYD might cross-react with MCP and with LeY. […] To further determine the extent of cross-reactivity for these motifs, peptides were synthesized repeating the respective putative centralized motifs shown in Table 2. It is theorized that the repeating tract should adopt a helix configuration which emulates many extended carbohydrate structures. To evaluate the antigenic mimicry of motif forms, we synthesized respective multiple antigen peptides (MAP) forms for detection of a reactivity pattern with the anti-LeY monoclonal antibodies BR55-2, and 15.6 (also referred to as BR15.6) and the anti-ganglioside antibody ME361 (FIG. 2a). Significant reactive sequences in FIG. 2a correspond to 3 peptides,
as §1

[3] = system: BR55-2 binding to LeY-PAA; assay: Inhibition of mAb BR55-2 binding to solid-phase LeY-PAA by soluble MAP peptides (ELISA); conditions: 20 times molar excess of MAP peptide
Protocol: as §2, §1

[4] = ELISA reactivity of sera of peptide-immunized mice with LeY and Leb; assay type: in vivo, Balb/c mice; conditions: anti-1104 MAP sera
Source text: The immunological presentation of the putative motifs, (i.e. short or longer peptides, presentation in a helix or beta bend, monovalent or multivalent (clustered forms)) might mimic overlapping epitopes on otherwise different carbohydrate structures. To test this idea, Balb/c mice were immunized with peptide-proteosome conjugates representative of the motifs YYPYD (SEQ ID NO: 6), and YYRYD (SEQ ID NO: 7) or the same peptides as MAP forms that are multiple repeats of the motifs administered with QS-21. Sera were collected 1 week after the last immunization, pooled and tested for reactivity with LeY and Leb. […] Superposition of LeY and Leb structures indicate that despite the change of glycosidic linkage from β1-3 to β1-4 in the type 1 and 2 chains, resulting conformational features of the respective sugar moieties are still shared forming a common topography. The only effective difference is the position of the N-acetyl and hydroxymethyl groups projected on opposite sides of the type 1 and 2 difucosylated structures.
Sera derived from immunization with the MAP peptides indicate that the IgM isotype is the predominate form, titering out to 1:2000 for the two carbohydrate forms, but displaying significant differences in reactivity for LeY and Leb that are accentuated at 1:100 and 1:500 titer (FIG. 4b). […]

[5] = ELISA with various synthetic carbohydrate subunit probes; assay type: binding; conditions: anti-1104 MAP sera, 1:50 serum dilution
Protocol: To further evaluate the specificity of the anti-carbohydrate IgG fraction derived from proteosome-conjugate immunized mice, ELISA assays were performed with plates coated with various synthetic carbohydrate subunit probes (FIG. 5a). […] It was observed that the anti-peptide sera (1:100 titer) was reactive with respective carbohydrate probes above background binding. Preferences for antisera against the YPY motif include Fucα1-3GlcNAc representative of LeY, and Lex, the H type 1 structure Fucα1-2Galβ1-3GlcNAc representative of Leb, and the disaccharide Galb1-4Glc which is a major constituent bacterial LOS. […] The antisera reacted with both H type 1 and H type 2 (Fucα1-2Galβ1-4GlcNAc) structures, with the type 1 structure displaying slightly more activity. This may reflect interaction with the common Fucα1-2Gal structure found on type 1 and type 2 structures or functional groups that are shared within the common topography of these two chains.
In contrast to the proteosome-peptide conjugates, increased specificity for LeY is observed for the MAP forms (FIG. 5b). At 1:50 dilution, the LeY reactivity of the antisera is approximately 3 fold more reactive with LeY than with Leb, Lex-pentasaccharide, SLea, SLex. […] Considering the diminished reactivity against LeX which shares the Galβ1→4(Fucα1→3)GlcNAcβ1 component it would appear that a fraction of antibodies react with a conformational component of LeY, providing for its increased reactivity, or alternatively, the affinity for LeY is increased.
To further evaluate the specificity of the 1104 peptide we synthesized 1104 as a MAP form and immunized Balb/c mice, with QS-21 as adjuvant and examined its reactivity pattern with various Le synthetic probes by ELISA (FIG. 9). The utility of MAP peptides is in their apparent advantage as immunogens. […] However, the MAPS described above contain T cell epitopes within the peptide sequence. […] We have observed this trend with MAP peptides.
At 1:50 serum dilution (FIG. 9), we observed about the same level of reduced reactivity for Leb hexasaccharide, LeX-pentasaccharide, sLeX, Lea, and sLea, while higher levels of reactivity are observed for LeY and LeY constituents. […] This selective interaction sets apart reactivities between Leb and LeY, since reactivity is observed for the H type 1 constituent of Leb.

[6] = system: SKBR3; assay: Complement dependent cytotoxicity (CDC); assay type: cell-based, human
Source text: (§3) Anti-carbohydrate antibodies may mediate complement dependent cytotoxicity (CDC) better than cytotoxicity associated with various effector cells. Subsequently, we have initially examined CDC mediation of various sera raised either to peptides or against the multivalent LeY-PAA form. […] We examined the ability of the sera to mediate complement dependent cytotoxicity (CDC) of the SKBR3 and MCF7 human breast adenocarcinoma cell lines, the ovarian tumor cell line OVAR-3 and the human melanoma lines WM793 and SKMEL-28 compared to that of the LeY-PAA generated sera. Positive control antibodies were BR55-2 which mediates CDC of the adenocarcinoma lines, and ME361 which mediates killing of WM793. Negative controls were pre-immune sera, an irrelevant peptide immunogen (C1) and two peptides (G1 and G2) isolated from phage display that are reactive with ME361.

[7] = system: OVAR-3; assay: Complement dependent cytotoxicity (CDC); assay type: cell-based, human
Source text: as §3

[8] = system: WM793; assay: Complement dependent cytotoxicity (CDC); assay type: cell-based, human
Source text: as §3

[9] = system: SKME1-28; assay: Complement dependent cytotoxicity (CDC); assay type: cell-based, human
Source text: as §3

[10] = system: MCF-7; assay: Complement dependent cytotoxicity (CDC); assay type: cell-based, human
Source text: as §3

[11] = system: HIV-1/3B isolate; assay: HIV-1 cell free neutralization; assay type: cell-based; conditions: Balb/c anti-peptide sera
Source text: (§4) FIGS. 7A, 7B and 7C depict anti-peptide sera mediation of HIV-1 cell free neutralization.
(§5) Mannose, sialyl and histo-blood group related carbohydrate epitopes (particularly LeY) are found on the major envelope protein of the human immunodeficiency virus (HIV). Consequently, we examined the extent to which the anti-peptide sera could mediate HIV-1 cell free neutralization. We observed that sera from Balb/c and C57B1/6 mice immunized with P1 or P2, neutralized HIV-1/MN at final dilution's up to 1:64 (FIGS. 7a-c). FIG. 7a illustrates the neutralization of HIV-1/MN by anti-P1 and P2 sera from Balb/c mice. Normal human sera (NHS), as well as the anti-P3 sera, were ineffective at blocking syncytia formnation, whereas human α-HIV-1 sera from 4 different infected patients neutralize cell free virus at dilution's up to 1:64. Sera derived from C57B1/6 mice also followed this profile (FIG. 7b). The isolate specificity was further determined by cell free neutralization of the HIV-1/3B isolate (FIG. 7c).

[12] = system: HIV-1/MN; assay: HIV-1 cell free neutralization (syncytia formation); assay type: cell-based; conditions: anti-peptide sera
Source text: as §4, §5

[13] = SKBR3, sera raised to the immunogen, final dilution 1:15
[14] = OVAR-3, sera raised to the immunogen, final dilution 1:15
[15] = WM793, sera raised to the immunogen, final dilution 1:15
[16] = SKME1-28, sera raised to the immunogen, final dilution 1:15
[17] = MCF-7, sera raised to the immunogen, final dilution 1:15

GGIYWRYDIYWRYDIYWRYD (Novel Sequence) [Peptide K61106]
ELISA reactivity with FH-6 [1]: also reactive | ELISA reactivity of BR55-2 with MAP peptide [2]: bound very well | inhibition of BR55-2 binding to LeY [3]: 50%

IMILLIFSLLWFGGA (Novel Sequence) [Peptide B1]
ELISA reactivity with FH-6 [1]: does not react | increase in reactivity for LeY over Leb [4]: three to fold increase | isotype of anti-peptide sera [4]: predominately of IgM isotype | serum reactivity with Fucal-3GlcNAc [5]: best reactivity | serum reactivity with Fucα1-4GIcNAc [5]: significantly reduced reactivity | serum reactivity with Galβ1-3Gal [5]: Minimal binding | averaged percent cytotoxicity [6, 13]: 90% | averaged percent cytotoxicity [7, 14]: 85% | averaged percent cytotoxicity [8, 15]: 10% | averaged percent cytotoxicity [9, 16]: 10% | averaged percent cytotoxicity [10, 17]: 70%

GGIYWRYDIYWRYDIYWRYD (Novel Sequence) [Peptide P2, elsewhere called YYRYD motif]
averaged percent cytotoxicity [6]: 80% | averaged percent cytotoxicity [7]: 84% | averaged percent cytotoxicity [8]: 9% | averaged percent cytotoxicity [9]: 13% | averaged percent cytotoxicity [10]: 29% | neutralization of HIV-1/3B infection in vitro [11]: effective in neutralizing

GGIYYPYDIYYPYDIYYPYD (Novel Sequence) [Peptide P1]
averaged percent cytotoxicity [6, 13]: 90% | averaged percent cytotoxicity [7, 14]: 89% | averaged percent cytotoxicity [8, 15]: 9% | averaged percent cytotoxicity [9, 16]: 10% | averaged percent cytotoxicity [10, 17]: 66% | neutralization of HIV-1/3B infection in vitro [11]: effective in neutralizing

GGIYYRYDIYYRYDIYYRYD (Novel Sequence) [Peptide P3]
averaged percent cytotoxicity [6]: 86% | averaged percent cytotoxicity [7]: 86% | averaged percent cytotoxicity [8]: 28% | averaged percent cytotoxicity [9]: 32% | averaged percent cytotoxicity [10]: 56% | blocking syncytia formation [12]: ineffective

GVVWRYTAPVHLGDG [Peptide G1, GVVWRYTAPVHLGDG]
averaged percent cytotoxicity [6]: 10% | averaged percent cytotoxicity [7]: 9% | averaged percent cytotoxicity [8]: 90% | averaged percent cytotoxicity [9]: 75% | averaged percent cytotoxicity [10]: 20%

GGIYYPYDIYYPYDIYYPYD (Novel Sequence) [Peptide K61105]
ELISA reactivity with FH-6 [1]: also reactive | ELISA reactivity of BR55-2 with MAP peptide [2]: reduces the recognition ability

— patent US20030017497A1, “Peptide mimotopes of carbohydrate antigens” (priority 1998, published 2003)
